{"source": "patent US20140065163A1", "about": "(MERCK SERONO S A, published 2014)", "key": {"[1]": {"biological_target": "T1, macaca GM-CSF (Macaca mulatta (identical in Macaca …, UniProt Q0MUT8 18-144 (Chlorocebus aethiops entry), limits assumed))", "T1 chain": "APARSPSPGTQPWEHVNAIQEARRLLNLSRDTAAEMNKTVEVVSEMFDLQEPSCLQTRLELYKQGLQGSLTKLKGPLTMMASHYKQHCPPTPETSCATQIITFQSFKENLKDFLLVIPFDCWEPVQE", "test": "cell-based or functional assay"}, "[2]": {"biological_target": "T2, human GM-CSF I117 (human, UniProt P04141 18-144)", "test": "cell-based or functional assay"}, "[3]": {"biological_target": "T3, human GM-CSF T117 (human, UniProt P04141 18-144)", "test": "cell-based or functional assay"}, "[4]": {"biological_target": "T1, macaca GM-CSF", "test": "cell-based or functional assay"}, "[5]": {"biological_target": "T2, human GM-CSF I117", "test": "cell-based or functional assay", "remark": "listed apart in the source"}, "[6]": {"biological_target": "T3, human GM-CSF T117", "test": "cell-based or functional assay", "remark": "listed apart in the source"}, "[7]": {"biological_target": "T1, macaca GM-CSF", "test": "cell-based or functional assay"}, "[8]": {"biological_target": "T2, human GM-CSF I117", "test": "cell-based or functional assay", "remark": "listed apart in the source"}, "[9]": {"biological_target": "T3, human GM-CSF T117", "test": "cell-based or functional assay", "remark": "listed apart in the source"}, "[10]": {"biological_target": "T1, macaca GM-CSF", "test": "cell-based or functional assay"}, "[11]": {"biological_target": "T2, human GM-CSF I117", "test": "cell-based or functional assay", "remark": "listed apart in the source"}, "[12]": {"biological_target": "T3, human GM-CSF T117", "test": "cell-based or functional assay", "remark": "listed apart in the source"}, "[13]": {"biological_target": "T2, human GM-CSF I117", "test": "KinExA, affinity in solution", "protocol": "(§1) The 4K21 and reference antibodies were incubated at concentration below the expected Kd with serial dilutions of human GM-CSF I117 or T117, or macaca GM-CSF up to equilibrium. The remaining free antibody was measured in a Kinetic exclusion assay with the KinExA® instrument. Kd was calculated by fitting the curve of the signal obtained versus the GM-CSF concentrations. The average of two experiments using different IgG concentrations was calculated."}, "[14]": {"biological_target": "T3, human GM-CSF T117", "test": "KinExA, affinity in solution", "protocol": "as §1"}, "[15]": {"biological_target": "T1, macaca GM-CSF", "test": "KinExA, affinity in solution", "protocol": "as §1"}, "[16]": {"biological_target": "T2, human GM-CSF I117", "test": "TF-1 proliferation assay and KinExA"}, "[17]": {"biological_target": "T4, human GM-CSF A117 mutant (human, UniProt P04141 18-144)", "T4 construct": "also called hGM-CSF A117; A117 protein", "test": "competition ELISA: antibody on coated wild-type human GM-CSF, competitor soluble human GM-CSF A117; single condition, competitor concentration not shown"}}, "note": "Read-outs that look alike come from different tables or passages of the source."}
{"binder": "humanized parental anti-GM-CSF 4K21 VH3-07.1AL+VK2-A3.2 hIgG1K antibody (MSB0010439) (antibody, V domains shown, Human IgG1 kappa; also called humanized parental 4K21 hVH hVL; parental 4K21) VH: EVQLVESGGGLVQPGGSLRLSCAASGFAFSAYDMSWVRQAPGKRLELVAYISSGGSSFYYPDTVKGRFTISRDNAKNSLYLQMNSLRAEDTAVYYCTRHLGFDYWGQGTLVTVSS VL: DIVMTQSPLSLPVTPGEPASISCRSSQSLVNSNGNTYLHWYLQKPGQSPQLLIYKVSNRFSGVPDRFSGSGSGTDFTLKISRVEAEDVGVYYCSQSTHVPPTFGQGTKVEIK", "values": [{"measurement": "neutralizing the orthologs of cynomolgus and rhesus monkeys (TF-1 proliferation assay)", "setting": "[1]", "result": "< 10", "unit": "fold"}, {"measurement": "IC50, inhibition of GM-CSF induced TF-1 proliferation (32 pM GM-CSF)", "setting": "[2]", "result": 98, "unit": "pM"}, {"measurement": "Fold human T117/I117 (IC50, TF-1 proliferation)", "setting": "[3]", "result": 9.7, "unit": "fold"}, {"measurement": "IC50, inhibition of GM-CSF induced TF-1 proliferation (32 pM GM-CSF)", "setting": "[3]", "result": 947, "unit": "pM"}, {"measurement": "Fold macaca/human I117 (IC50, TF-1 proliferation)", "setting": "[4]", "result": 5.7, "unit": "fold"}, {"measurement": "IC50, inhibition of GM-CSF induced TF-1 proliferation (32 pM GM-CSF)", "setting": "[4]", "result": 557, "unit": "pM"}, {"measurement": "Fold improvement of 4K21 H93Y alone on I117 (IC50, TF-1 proliferation)", "setting": "[5]", "result": 0.2, "unit": "fold"}, {"measurement": "Fold improvement of humanized parental 4K21 on I117 (IC50, TF-1 proliferation)", "setting": "[5]", "result": 1, "unit": "fold"}, {"measurement": "IC50, inhibition of GM-CSF induced TF-1 proliferation (32 pM GM-CSF)", "setting": "[5]", "result": 121, "unit": "pM"}, {"measurement": "Fold human T117/I117 (IC50, TF-1 proliferation)", "setting": "[6]", "result": 11.6, "unit": "fold"}, {"measurement": "Fold improvement of 4K21 H93Y alone on T117 (IC50, TF-1 proliferation)", "setting": "[6]", "result": 0.1, "unit": "fold"}, {"measurement": "Fold improvement of humanized parental 4K21 on T117 (IC50, TF-1 proliferation)", "setting": "[6]", "result": 1, "unit": "fold"}, {"measurement": "IC50, inhibition of GM-CSF induced TF-1 proliferation (32 pM GM-CSF)", "setting": "[6]", "result": 1400, "unit": "pM"}, {"measurement": "Fold improvement of 4K21 H93Y alone on macaca (IC50, TF-1 proliferation)", "setting": "[7]", "result": 0.1, "unit": "fold"}, {"measurement": "Fold improvement of humanized parental 4K21 on macaca (IC50, TF-1 proliferation)", "setting": "[7]", "result": 1, "unit": "fold"}, {"measurement": "Fold macaca/human I117 (IC50, TF-1 proliferation)", "setting": "[7]", "result": 6.6, "unit": "fold"}, {"measurement": "IC50, inhibition of GM-CSF induced TF-1 proliferation (32 pM GM-CSF)", "setting": "[7]", "result": 793, "unit": "pM"}, {"measurement": "IC50, inhibition of GM-CSF induced IL-8 secretion in U937 cells (65 pM GM-CSF)", "setting": "[8]", "result": 170, "unit": "pM"}, {"measurement": "IC50, inhibition of GM-CSF induced IL-8 secretion in U937 cells (65 pM GM-CSF)", "setting": "[9]", "result": 930, "unit": "pM"}, {"measurement": "IC50, inhibition of GM-CSF induced IL-8 secretion in U937 cells (65 pM GM-CSF)", "setting": "[10]", "result": 1120, "unit": "pM"}, {"measurement": "Emax (%), inhibition of CD11b upregulation on neutrophils after GM-CSF stimulation", "setting": "[11]", "result": 65, "unit": "%"}, {"measurement": "IC50, inhibition of CD11b upregulation on neutrophils after GM-CSF stimulation", "setting": "[11]", "result": 3.06, "unit": "nM"}, {"measurement": "Emax (%), inhibition of CD11b upregulation on neutrophils after GM-CSF stimulation", "setting": "[12]", "result": 68, "unit": "%"}, {"measurement": "IC50, inhibition of CD11b upregulation on neutrophils after GM-CSF stimulation", "setting": "[12]", "result": 31.6, "unit": "nM"}, {"measurement": "Kd", "setting": "[13]", "result": 0.021, "unit": "nM"}, {"measurement": "Kd", "setting": "[14]", "result": 0.164, "unit": "nM"}, {"measurement": "Kd", "setting": "[15]", "result": 0.063, "unit": "nM"}, {"measurement": "fold preference for GM-CSF I117 versus T117", "setting": "[16]", "result": "> 10", "unit": "fold"}]}
{"binder": "MSB0010601 4K21 (4K21 hVH S55K-T62S hVL N28I-H34S-N53R-H93Y) (antibody, V domains shown, IgG; also called optimized 4K21 antibody) VH: EVQLVESGGGLVQPGGSLRLSCAASGFAFSAYDMSWVRQAPGKRLELVAYISSGGKSFYYPDSVKGRFTISRDNAKNSLYLQMNSLRAEDTAVYYCTRHLGFDYWGQGTLVTVSS VL: DIVMTQSPLSLPVTPGEPASISCRSSQSLVNSIGNTYLSWYLQKPGQSPQLLIYKVSRRFSGVPDRFSGSGSGTDFTLKISRVEAEDVGVYYCSQSTYVPPTFGQGTKVEIK", "values": [{"measurement": "Fold improvement of 4K21 H93Y alone on I117 (IC50, TF-1 proliferation)", "setting": "[5]", "result": 1.3, "unit": "fold"}, {"measurement": "Fold improvement of humanized parental 4K21 on I117 (IC50, TF-1 proliferation)", "setting": "[5]", "result": 5.3, "unit": "fold"}, {"measurement": "IC50, inhibition of GM-CSF induced TF-1 proliferation (32 pM GM-CSF)", "setting": "[5]", "result": 23, "unit": "pM"}, {"measurement": "Fold human T117/I117 (IC50, TF-1 proliferation)", "setting": "[6]", "result": 0.9, "unit": "fold"}, {"measurement": "Fold improvement of 4K21 H93Y alone on T117 (IC50, TF-1 proliferation)", "setting": "[6]", "result": 8.3, "unit": "fold"}, {"measurement": "Fold improvement of humanized parental 4K21 on T117 (IC50, TF-1 proliferation)", "setting": "[6]", "result": 68, "unit": "fold"}, {"measurement": "IC50, inhibition of GM-CSF induced TF-1 proliferation (32 pM GM-CSF)", "setting": "[6]", "result": 21, "unit": "pM"}, {"measurement": "Fold improvement of 4K21 H93Y alone on macaca (IC50, TF-1 proliferation)", "setting": "[7]", "result": 1.8, "unit": "fold"}, {"measurement": "Fold improvement of humanized parental 4K21 on macaca (IC50, TF-1 proliferation)", "setting": "[7]", "result": 15, "unit": "fold"}, {"measurement": "Fold macaca/human I117 (IC50, TF-1 proliferation)", "setting": "[7]", "result": 2.3, "unit": "fold"}, {"measurement": "IC50, inhibition of GM-CSF induced TF-1 proliferation (32 pM GM-CSF)", "setting": "[7]", "result": 53, "unit": "pM"}, {"measurement": "IC50, inhibition of GM-CSF induced IL-8 secretion in U937 cells (65 pM GM-CSF)", "setting": "[8]", "result": 334, "unit": "pM"}, {"measurement": "IC50, inhibition of GM-CSF induced IL-8 secretion in U937 cells (65 pM GM-CSF)", "setting": "[9]", "result": 263, "unit": "pM"}, {"measurement": "IC50, inhibition of GM-CSF induced IL-8 secretion in U937 cells (65 pM GM-CSF)", "setting": "[10]", "result": 340, "unit": "pM"}, {"measurement": "Emax (%), inhibition of CD11b upregulation on neutrophils after GM-CSF stimulation", "setting": "[11]", "result": 79, "unit": "%"}, {"measurement": "IC50, inhibition of CD11b upregulation on neutrophils after GM-CSF stimulation", "setting": "[11]", "result": 1.41, "unit": "nM"}, {"measurement": "Emax (%), inhibition of CD11b upregulation on neutrophils after GM-CSF stimulation", "setting": "[12]", "result": 97, "unit": "%"}, {"measurement": "IC50, inhibition of CD11b upregulation on neutrophils after GM-CSF stimulation", "setting": "[12]", "result": 2.03, "unit": "nM"}, {"measurement": "Kd", "setting": "[13]", "result": 0.006, "unit": "nM"}, {"measurement": "Kd", "setting": "[14]", "result": 0.005, "unit": "nM"}, {"measurement": "Kd", "setting": "[15]", "result": 0.012, "unit": "nM"}, {"measurement": "binding result", "setting": "[17]", "result": "binds"}]}
